Patent US20030148958A1 (PROCTER AND GAMBLE, published 2003)
Ends that are not written are not given here.

T1: corticotropin releasing factor 2 receptor
T1 sequence (Q13324 whole entry, species assumed, looked up): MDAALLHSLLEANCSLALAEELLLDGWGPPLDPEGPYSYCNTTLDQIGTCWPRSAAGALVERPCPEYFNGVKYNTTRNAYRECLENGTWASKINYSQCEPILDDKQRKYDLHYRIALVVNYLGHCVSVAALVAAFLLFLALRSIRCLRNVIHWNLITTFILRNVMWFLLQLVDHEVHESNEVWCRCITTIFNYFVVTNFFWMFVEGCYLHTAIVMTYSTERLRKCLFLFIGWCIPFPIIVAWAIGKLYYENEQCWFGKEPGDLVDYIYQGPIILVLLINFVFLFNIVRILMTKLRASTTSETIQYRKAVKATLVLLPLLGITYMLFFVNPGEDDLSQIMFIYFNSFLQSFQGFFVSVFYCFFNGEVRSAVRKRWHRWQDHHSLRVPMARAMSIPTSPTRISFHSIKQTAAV


How the values were obtained:
[1] = molecular target: T1, corticotropin releasing factor 2 …; assay: cell-based or functional assay
[2] = molecular target: corticotropin releasing factor 1 receptor; assay: cell-based or functional assay
Throughout, for CRF1R Emax: reference of the scale not given here.
Throughout, for CRF2R Emax: reference of the scale not given here.

Binder | CRF2R EC50 [1] [nM] | CRF2R Emax [1] [%] | CRF1R EC50 [2] [nM] | CRF1R Emax [2] [%]
IVLSLDVPIGLLQILLEQAKQEAAREQATTNARILARV-NH2 [SEQ ID NO 124] | 3.49 | 94 | > 100 | 6
IVLSLDVPIGLLQILLEQEKQEAAREQATTNARILARV-NH2 [SEQ ID NO 125] | 4.47 | 99 | > 100 | 9
IVLSLDVPIGLLQILLEQTRADAAREQATTNARILARV-NH2 [SEQ ID NO 126] | 13 | 91 | > 100 | 7
ZGPPISIDLPFQLLRKMIEIEKQEKEKQQATTNRLLLDTI (C-terminal amide) [SEQ ID NO 13] | 3.88 | 79 | 97.7 | 69
IVLSLDVPIGLLQILLEQAKARAAREQATTNARILARV-NH2 [SEQ ID NO 127] | 7.79 | – | > 100 | –
IVLSLDVPIGLLQILLEQTRARAAREQATTNARILARV-NH2 [SEQ ID NO 128] | 2.85 | 98 | > 100 | 8
IVLSLDVPIGLLQILLEQTKARAAREQATTNARILARV-NH2 [SEQ ID NO 129] | 3.83 | – | > 100 | –
IVLSLDVPIGLLQILLEQARADAAREQATTNARILARV-NH2 [SEQ ID NO 130] | 8.57 | 92 | > 100 | 9
IVLSLDVPIGLLQILLEQAKADAAREQATTNARILARV-NH2 [SEQ ID NO 131] | 5.25 | 91 | > 100 | 8
IVLSLDVPIGLLQILLEQEKEKKRKETNARILARV-NH2 [SEQ ID NO 132] | 7.53 | 88 | > 100 | 8
IVLSLDVPIGLLQILLEQRRAAREQATTNARILARV-NH2 [SEQ ID NO 133] | 12.2 | 88 | > 100 | 4
IVLSLDVPIGLLQILLEQAAAAREQATTNARILARV-NH2 [SEQ ID NO 134] | > 100 | 19 | > 100 | 7
IVLSLDVPIGLLQILLEQAARAAREQATTNARILARV-NH2 [SEQ ID NO 135] | > 100 | 76 | > 100 | 6
IVLSLDVPIGLLQILLEQRAAREQATTNARILARV-NH2 [SEQ ID NO 136] | 23.4 | 68 | > 100 | 8
ZGPPISIDLPFQLLRKMIEIEKQEKEKQQATNNRLLLDTI (C-terminal amide) [SEQ ID NO 14] | 6.33 | 90 | 109 | 92
IVLSLDVPIGLLQILLEQRARAAREQATTNARILARV-NH2 [SEQ ID NO 137] | 36.9 | 100 | > 100 | 4
IVLSLDVPIGLLQILLEQAAREQATTNARILARV-NH2 [SEQ ID NO 138] | 59 | 46 | > 100 | 5
IVLSLDVPIGLLQILLEQAAAREQATTNARILARV-NH2 [SEQ ID NO 139] | 42.6 | 60 | > 100 | 4
IVLSLDVPIGLLQILLEQARAAAREQATTNARILARV-NH2 [SEQ ID NO 141] | > 100 | 29 | > 100 | 7
ZGPPISIDLSLELLRKMIEIEKQEKEKQQATTNARILARV (C-terminal amide) [SEQ ID NO 142] | 9.08 | 77 | 43.5 | 85.3
ZGPPISIDLPLELLRKMIEIEKQEKEKQQATTNARILARV (C-terminal amide) [SEQ ID NO 143] | 11.1 | 85.5 | 232 | 100
ZGPPISIDLPLQLLRKMIEIEKQEKEKQQATTNARILARV (C-terminal amide) [SEQ ID NO 144] | 9.16 | 85.5 | 567 | 100
ZGPPISIDLPFQLLRKMIEIEKQEKEKQQAAANRLLLDTV (C-terminal amide) [SEQ ID NO 15] | 6.56 | 97 | 85.3 | 86
ZGPPISIDLPFQLLRKMIEIEKQEKEKQQATTNRLLLDTV (C-terminal amide) [SEQ ID NO 16] | 7.88 | 86 | 136 | 98

Second part, the binder after the results:

CRF2R EC50 [1] [nM] | CRF2R Emax [1] [%] | CRF1R EC50 [2] [nM] | CRF1R Emax [2] [%] | Binder
7.8 | 69 | 196 | 91.3 | ZGPPISIDLPLHLLRKMIEIEKQEKEKQQATTNARILARV (C-terminal amide) [SEQ ID NO 145]
8.2 | 84.5 | 103 | 100 | ZGPPISIDLPFHLLRKMIEIEKQEKEKQQATTNARILARV (C-terminal amide) [SEQ ID NO 146]
6.75 | 94 | 102 | 96 | ZGPPISIDLPFYLLRKMIEIEKQEKEKQQATTNARILARV (C-terminal amide) [SEQ ID NO 147]
9.45 | 51.5 | 295 | 100 | ZGPPISIDLPFQLLRKMIEIEKQEKEKQQATTNARILARV (C-terminal amide) [SEQ ID NO 148]
26.2 | 95.5 | 1000 | 40.7 | ZGPPISIDLPIYLLRKMIEIEKQEKEKQQATTNARILARV (C-terminal amide) [SEQ ID NO 149]
34.6 | 70.5 | 1000 | 5.7 | ZGPPISIDLPIQLLRKMIEIEKQEKEKQQATTNARILARV (C-terminal amide) [SEQ ID NO 150]
36.8 | 96 | 1000 | 19.9 | ZGPPISIDLPTYLLRKMIEIEKQEKEKQQATTNARILARV (C-terminal amide) [SEQ ID NO 151]
> 100 | 19 | > 100 | 4 | SQEIVLSLDVPIGLLREVLEMTKADQLAQQAHSNRKLLDIA-NH2 [SEQ ID NO 152]
9.28 | 97 | > 100 | 7 | ZGIVLSLDVPIGLLRKMIEIEKQEKEKQQAANNRLLLDTI (C-terminal amide) [SEQ ID NO 153]
10.3 | 100 | > 100 | 7 | IVLSLDVPIGLLQILIEIEKQEKEKQQAANNRLLLDTI-NH2 [SEQ ID NO 154]
20.6 | 94 | 40.6 | 16 | IVLSLDVPIGLLQILLEMTKADQLAQQAHSNRKLLDIA-NH2 [SEQ ID NO 155]
9.29 | 79 | > 100 | 6 | ZGPPISIDLSLELLRKMIEQARARAAREQATTNARILARV (C-terminal amide) [SEQ ID NO 156]
42 | 60.6 | 100 | 91 | SQEPPISLDLTFHLLREVLEQARARAAREQATTNARILARV-NH2 [SEQ ID NO 157]
6.37 | 89 | > 100 | 15 | IVLSLDVPIGLLQILLEIEKQEKEKQQAANNRLLLDTI-NH2 [SEQ ID NO 158]
